From paper PMC7296346, “Dynamic Palmitoylation of the Sodium-Calcium Exchanger Modulates Its Structure, Affinity for Lipid-Ordered Domains, and Inhibition by XIP” (Cell Reports, 2020)
Values belong to the molecule of their own block, whether it stands above or below them.

How the values were obtained:
[1] = molecular target: C739A NCX1, full length, tetracycline-inducible in FT-293 cells (canine); experiment: cross-linking; FT-293 cells expressing tetracycline-inducible NCX1 treated with 0.1 mM BMH for 5 min at 37°C in 10 mM Tris-HCl pH 7.2, 150 mM NaCl; lysed in 1% Triton X-100; SDS-PAGE
[2] = molecular target: the molecule itself; experiment: as above

- stoichiometry N [1]: 2
Molecule: C739A NCX1, full length, tetracycline-inducible in FT-293 cells (natural protein)

B1: wild-type (WT) NCX1, full length, tetracycline-inducible in FT-293 cells (natural protein, canine, UniProt P23685 33-970, looked up)
chain: ETEMEGEGNETGECTGSYYCKKGVILPIWEPQDPSFGDKIARATVYFVAMVYMFLGVSIIADRFMSSIEVITSQEKEITIKKPNGETTKTTVRIWNETVSNLTLMALGSSAPEILLSVIEVCGHNFTAGDLGPSTIVGSAAFNMFIIIALCVYVVPDGETRKIKHLRVFFVTAAWSIFAYTWLYIILSVISPGVVEVWEGLLTFFFFPICVVFAWVADRRLLFYKYVYKRYRAGKQRGMIIEHEGDRPSSKTEIEMDGKVVNSHVDNFLDGALVLEVDERDQDDEEARREMARILKELKQKHPEKEIEQLIELANYQVLSQQQKSRAFYRIQATRLMTGAGNILKRHAADQARKAVSMHEVNTEVAENDPVSKIFFEQGTYQCLENCGTVALTIIRRGGDLTNTVFVDFRTEDGTANAGSDYEFTEGTVVFKPGETQKEIRVGIIDDDIFEEDENFLVHLSNVKVSSEASEDGILEANHVSALACLGSPSTATVTIFDDDHAGIFTFEEPVTHVSESIGIMEVKVLRTSGARGNVIVPYKTIEGTARGGGEDFEDTCGELEFQNDEIVKTISVKVIDDEEYEKNKTFFLEIGEPRLVEMSEKKALLLNELGGFTITGKYLYGQPVFRKVHAREHPIPSTVITIAEEYDDKQPLTSKEEEERRIAEMGRPILGEHTKLEVIIEESYEFKSTVDKLIKKTNLALVVGTNSWREQFIEAITVSAGEDDDDDECGEEKLPSCFDYVMHFLTVFWKVLFAFVPPTEYWNGWACFIVSILMIGILTAFIGDLASHFGCTIGLKDSVTAVVFVALGTSVPDTFASKVAATQDQYADASIGNVTGSNAVNVFLGIGVAWSIAAIYHAANGEQFKVSPGTLAFSVTLFTIFAFINVGVLLYRRRPEIGGELGGPRTAKLLTSCLFVLLWLLYIFFSSLEAYCHIKGF
modifications: palmitoylated at cysteine 739
notes: Na-Ca exchanger 1, canine, NCX1.1 cDNA; Forms a dimer (cross-linking); The cell line is from Reilly et al., 2015; source: in cells or in lysate
- stoichiometry N [2]: 2
